The values below come from publication PMC5135098, “Attenuation of Quorum Sensing Regulated Virulence of Pectobacterium carotovorum subsp. carotovorum through an AHL Lactonase Produced by Lysinibacillus sp. Gs50” (PLoS ONE, 2016).

In this series the test system is CCCCCC(=O)NC1CCOC1=O. Put plainly: purified protein. The conditions noted are these: pH 8.0, 50 mM Tris-Cl, 35°C (methods: 30°C, 2 h for saturation curve), no added metal.

As a reminder, the Km is the concentration of substrate that gives half-maximal velocity. With AdeH (Lysinibacillus sp. Gs50), the Km was determined as 3.089 µM.
